The results in this text go back to publication PMC7058304 (PLoS ONE, 2020).

B1: mAb16 (analog of dostarlimab) (antibody, V domains shown)
VH: EVQLLESGGGLVQPGGSLRLSCAASGFTFSSYDMSWVRQAPGKGLEWVSTISGGGSYTYYQDSVKGRFTISRDNSKNTLYLQMNSLRAEDTAVYYCASPYYAMDYWGQGTTVTVSS
VL: DIQLTQSPSFLSAYVGDRVTITCKASQDVGTAVAWYQQKPGKAPKLLIYWASTLHTGVPSRFSGSGSGTEFTLTISSLQPEDFATYYCQHYSSYPWTFGQGTKLEIK
notes: VH; IgG4 heavy-chain constant region with stabilizing 226CPPC hinge; VL; IgG4 analog; source: HEK293 suspension cells, cotransfected, purified (Protein A)
B2: mAb23 (analog of cemiplimab) (antibody, V domains shown)
VH: EVQLLESGGVLVQPGGSLRLSCAASGFTFSNFGMTWVRQAPGKGLEWVSGISGGGRDTYFADSVKGRFTISRDNSKNTLYLQMNSLKGEDTAVYYCVKWGNIYFDYWGQGTLVTVSS
VL: DIQMTQSPSSLSASVGDSITITCRASLSINTFLNWYQQKPGKAPNLLIYAASSLHGGVPSRFSGSGSGTDFTLTIRTLQPEDFATYYCQQSSNTPFTFGPGTVVDFR
notes: as for B1
B3: mAb03 (analog of tislelizumab) (antibody, V domains shown)
VH: QVQLQESGPGLVKPSETLSLTCTVSGFSLTSYGVHWIRQPPGKGLEWIGVIYADGSTNYNPSLKSRVTISKDTSKNQVSLKLSSVTAADTAVYYCARAYGNYWYIDVWGQGTTVTVSS
VL: DIVMTQSPDSLAVSLGERATINCKSSESVSNDVAWYQQKPGQPPKLLINYAFHRFTGVPDRFSGSGYGTDFTLTISSLQAEDVAVYYCHQAYSSPYTFGQGTKLEIK
notes: as for B1

In the first assay the target is T1, Recombinant purified human PD-1 protein, residues Leu25-Thr168, with a C-terminal 6-His tag (human, UniProt Q15116).
T1 construct: programmed cell death protein 1 (PD-1), human, residues Leu25-Thr168; monomer; the results call it wild-type or full length PD-1 against the P35-Q167 fragment; also called PD-1-His; PD-1 His-tagged monomer; source: bought: R&D Systems; not shown: His6, C-terminal, kept
T1 sequence (Q15116 25-168): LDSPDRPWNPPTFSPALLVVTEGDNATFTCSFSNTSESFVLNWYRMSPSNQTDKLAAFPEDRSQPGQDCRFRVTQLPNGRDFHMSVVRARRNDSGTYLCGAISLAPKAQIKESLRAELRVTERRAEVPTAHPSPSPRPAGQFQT
Description: SPR; Biacore 8K, flat chips (average of C1 and CMD-P); mAbs captured on goat anti-human IgG Fc; PD-1 His-tagged monomer analyte 0.4-100 nM; 25 C; HBS-EP+ pH 7.4; 1:1 Langmuir fit with mass transport; apparent. Conditions: both partners purified. A general note: Surface plasmon resonance follows binding to a sensor surface in real time, without labels.
Turning to B1, the Kd was 0.87 nM.
With B2, the Kd turned out to be 0.82 nM.
On the same count and under the same terms, the figure for B3 is 0.13 nM.

For the next assay, the target named is T1, Recombinant purified human PD-1 …. Nature of the assay: SPR; Biacore 8K, 3D-hydrogel chips (average of CM5 and CMD-200M); mAbs captured on goat anti-human IgG Fc; PD-1 His-tagged monomer analyte 0.4-100 nM; 25 C; HBS-EP+ pH 7.4; 1:1 Langmuir fit with mass transport; apparent. The settings on record: both partners purified.
Consider B1, for which the Kd came out at 1.7 nM.
Still for that read-out and setting: the figure for B2 is 1.9 nM.
Still for that read-out and setting: the figure for B3 is 0.26 nM.

The target in another assay is T2, biotinylated His-tagged PD-1 (Homo sapiens, UniProt Q15116, biotin).
T2 construct: PD-1, His-tagged, biotinylated, used in the MSD experiments; probably the R&D Systems Leu25-Thr168 protein after biotinylation
T2 sequence (Q15116 whole entry, looked up, tested part not stated): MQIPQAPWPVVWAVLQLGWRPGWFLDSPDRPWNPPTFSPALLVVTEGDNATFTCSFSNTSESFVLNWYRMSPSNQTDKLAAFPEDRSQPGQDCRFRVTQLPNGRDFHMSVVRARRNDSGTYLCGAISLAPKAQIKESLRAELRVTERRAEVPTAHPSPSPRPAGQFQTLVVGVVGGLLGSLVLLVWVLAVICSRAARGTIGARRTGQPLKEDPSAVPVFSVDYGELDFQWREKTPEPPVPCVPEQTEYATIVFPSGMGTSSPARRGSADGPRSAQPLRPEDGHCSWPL
Description: MSD solution equilibrium titration; 100 pM biotinylated His-tagged PD-1 titrated with mAb (top 100, 50 or 10 nM binding sites), 18 h at room temperature; free antigen captured on mAb-coated MSD plates; relative KD. The settings on record: both partners purified.
B1 had a Kd of 0.18 nM.
Still for that read-out and setting: the figure for B2 is 0.13 nM.
The same measure, in the same setting: the figure for B3 is 0.024 nM.

For the next assay, the target named is T1, Recombinant purified human PD-1 …. Nature of the assay: SPR; Carterra LSA, CMD-P (flat) chip; mAbs captured on goat anti-human IgG Fc in a 384-spot array; PD-1-His analyte 0.5-1000 nM, 5 min association, 20 min dissociation; HBS-ET + 0.5 mg/ml BSA; 1:1 Langmuir fit; mean of spots; apparent. Conditions: both partners purified.
For B1, the Kd was found to be 1.6 nM; the koff (usually a measure of how fast the partners let go of each other) worked out at 0.00039 s⁻¹; the kon (as a rule, the second-order rate constant of association) came to 240000 M⁻¹ s⁻¹.
In the case of B2, the Kd is 1.5 nM, the koff was determined as 0.00028 s⁻¹ and the kon was determined as 190000 M⁻¹ s⁻¹.
In the same order, the values of B3 are < 0.099 nM, < 4.3e-05 s⁻¹ and 430000 M⁻¹ s⁻¹.

The next assay has the same target. Nature of the assay: KinExA equilibrium; fixed mAb orientation: PD-1-His monomer titrated (0.1 pM-1.2 uM) into fixed mAb, equilibrated up to 64 h; free mAb captured on beads coated with Fc-fused PD-1; about 23 C; PBS pH 7.4 + 0.05% azide + 0.01% BSA; N-curve analysis; apparent. The settings on record: both partners purified.
As for B1, the Kd stood at 0.2 nM.
Same read-out and setting: the figure for B2 is 0.22 nM; for B3 it is 0.038 nM.
